Results from patent US20120184457A1, “Modulation of miRNA Activity” (Cambridge Enterprise Limited, priority 2009, published 2012).

Experiments:
[1] = test system: recombinant GST-LIN-28 (C. elegans LIN-28 fused to glutathione-S-transferase) [GST: P08515]
[2] = target: T1, LIN-28 (GST-LIN-28) (Caenorhabditis elegans) (UniProt P92186); assay: EMSA; conditions: estimated; 50 mM Tris pH 7.6, 100 mM NaCl, 5 mM MgOAc2, tRNA competitor, room temperature
T1 sequence: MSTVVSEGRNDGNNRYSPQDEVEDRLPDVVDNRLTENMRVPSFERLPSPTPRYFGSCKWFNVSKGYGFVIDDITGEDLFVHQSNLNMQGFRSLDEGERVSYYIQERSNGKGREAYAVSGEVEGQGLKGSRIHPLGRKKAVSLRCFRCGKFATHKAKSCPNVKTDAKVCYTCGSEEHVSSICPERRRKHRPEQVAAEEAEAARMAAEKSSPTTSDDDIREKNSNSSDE

ZCCHC11 = target: T2, ZCCHC11 (Homo sapiens, UniProt Q5TAX3); assay: Screening assay for ZCCHC poly(U) polymerase inhibitors: in vitro uridylation of 5'-end-labeled pre-let-7; format: biochemical
T2 construct: expressed in transfected cells; host or cells: HEK293T
Description: HEK293T cells were transfected with pHA-FLAG-ZCCHC11. After 48 hrs cells were lysed. 50 μl of the supernatant was incubated with 5 μl of pre-washed anti-FLAG antibody conjugated to agarose beads (Sigma) and incubated for 2 hrs at 4° C. Agarose-beads were washed twice with lysis buffer and twice with buffer D. For in vitro uridylation, agarose beads were incubated in a 30 μl reaction containing 3.2 mM of MgCl2, 1 mM of DTT and 0.25 mM of rUTP, 5 mM of test compound and 5′-end-labeled pre-let-7 of 1×10^4-1×10^5 cpm, for 20 min at 37° C. RNA was purified by Trizol extraction and isopropanol precipitated. Reactions were analysed in a 12% urea polyacrylamide gel.

T2 sequence (Q5TAX3 whole entry): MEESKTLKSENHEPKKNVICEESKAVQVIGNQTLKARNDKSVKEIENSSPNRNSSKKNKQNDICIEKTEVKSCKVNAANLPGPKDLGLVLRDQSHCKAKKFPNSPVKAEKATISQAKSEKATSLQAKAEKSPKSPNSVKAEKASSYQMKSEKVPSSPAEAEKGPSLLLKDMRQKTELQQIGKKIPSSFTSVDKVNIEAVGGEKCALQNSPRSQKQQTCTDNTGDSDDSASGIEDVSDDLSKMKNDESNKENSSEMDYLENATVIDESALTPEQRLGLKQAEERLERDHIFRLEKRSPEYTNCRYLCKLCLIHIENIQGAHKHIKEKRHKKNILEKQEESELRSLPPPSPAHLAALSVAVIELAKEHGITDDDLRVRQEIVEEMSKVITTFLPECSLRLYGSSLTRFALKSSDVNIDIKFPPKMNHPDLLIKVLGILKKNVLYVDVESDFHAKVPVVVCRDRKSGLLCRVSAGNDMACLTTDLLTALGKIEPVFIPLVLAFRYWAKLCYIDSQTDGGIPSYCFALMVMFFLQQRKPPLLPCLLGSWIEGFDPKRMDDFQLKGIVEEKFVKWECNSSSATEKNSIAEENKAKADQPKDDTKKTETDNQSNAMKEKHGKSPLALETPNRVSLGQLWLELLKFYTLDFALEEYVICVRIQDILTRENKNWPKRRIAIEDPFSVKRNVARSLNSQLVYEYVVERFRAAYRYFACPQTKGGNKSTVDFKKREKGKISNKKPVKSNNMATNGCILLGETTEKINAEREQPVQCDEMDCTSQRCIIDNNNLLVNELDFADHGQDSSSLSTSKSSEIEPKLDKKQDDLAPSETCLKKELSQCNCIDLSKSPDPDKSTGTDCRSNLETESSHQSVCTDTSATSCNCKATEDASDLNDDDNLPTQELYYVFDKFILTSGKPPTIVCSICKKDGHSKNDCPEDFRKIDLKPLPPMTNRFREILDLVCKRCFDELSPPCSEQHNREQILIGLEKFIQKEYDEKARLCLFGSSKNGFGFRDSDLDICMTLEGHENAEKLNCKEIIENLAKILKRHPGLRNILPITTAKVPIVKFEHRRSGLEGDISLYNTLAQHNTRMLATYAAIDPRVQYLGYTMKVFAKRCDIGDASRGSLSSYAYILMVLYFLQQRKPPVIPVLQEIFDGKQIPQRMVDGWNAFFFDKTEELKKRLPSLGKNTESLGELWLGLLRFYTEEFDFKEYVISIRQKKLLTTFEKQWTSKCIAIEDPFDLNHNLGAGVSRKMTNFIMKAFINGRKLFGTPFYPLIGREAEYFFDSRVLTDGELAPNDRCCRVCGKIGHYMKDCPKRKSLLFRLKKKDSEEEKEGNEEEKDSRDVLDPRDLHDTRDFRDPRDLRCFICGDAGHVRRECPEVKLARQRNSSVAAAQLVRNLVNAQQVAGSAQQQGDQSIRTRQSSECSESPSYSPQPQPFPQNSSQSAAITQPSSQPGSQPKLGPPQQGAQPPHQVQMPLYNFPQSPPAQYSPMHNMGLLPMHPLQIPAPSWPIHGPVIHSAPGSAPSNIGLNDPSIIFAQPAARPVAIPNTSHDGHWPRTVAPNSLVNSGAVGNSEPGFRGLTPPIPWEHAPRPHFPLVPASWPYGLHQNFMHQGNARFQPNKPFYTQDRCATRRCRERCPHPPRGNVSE
Chain of recombinant GST-LIN-28 (C. elegans LIN-28 fused to glutathione-S-transferase) [GST: P08515] (P08515 whole entry, looked up, the tested form may be a part): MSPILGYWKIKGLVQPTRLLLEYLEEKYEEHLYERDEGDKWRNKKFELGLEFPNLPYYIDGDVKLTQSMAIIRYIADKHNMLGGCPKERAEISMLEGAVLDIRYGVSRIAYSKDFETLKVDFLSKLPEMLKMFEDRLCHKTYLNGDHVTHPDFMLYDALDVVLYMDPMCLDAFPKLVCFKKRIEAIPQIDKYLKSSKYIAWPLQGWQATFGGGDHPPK

recombinant MBP-PUP2 (C. elegans PUP2 fused to maltose binding protein)
polyuridylation of pre-let-7 in vitro (uridylation assay, incorporation of alpha-32P-UTP) [1]: PUP2 was inactive on its own and required the addition of LIN-28 to polyuridylate pre-let-7 | uridylation assay [1]: PUP2 is a LIN-28 dependent pre-let-7 polyuridylase in vitro

pre-let-7 (in vitro transcribed)
Kd [2]: 2000 nM

uridine 5′-diphosphoglucuronic acid (UDP-GlcA) [compound 1]
uridylation activity of FLAG immunoprecipitates of ZCCHC11 (ZCCHC11; FLAG immunoprecipitates, 5 mM of test compound, 20 min at 37° C., FIG. 15b): reduces the uridylation activity | uridylation activity of whole cell extracts (endogenous and HA-FLAG-ZCCHC11 uridylyl activities) (ZCCHC11; whole cell extracts of HEK293T cells transfected with pHA-FLAG-ZCCHC11, FIG. 15a): reduces the uridylation activity
